“And” between values parts separate entries of the source, which are not always exact repeats. Identical values can stand only once. *1 amine or outer side, *2 acyl side, *3 side chain or, on linkers, in order; H or OH if unused. [ ]: non-standard residue; d: D form. Cys(Me) = CSC[C@H](N[*:1])C(=O)[*:2]; Sar = CNCC(=O)O
T1: β-catenin (UniProt P35222 134-665, limits assumed, biotinylated in the SPR and plate assays)
T1 construct: also called beta catenin; biotinylated β-catenin
T1 sequence (looked up): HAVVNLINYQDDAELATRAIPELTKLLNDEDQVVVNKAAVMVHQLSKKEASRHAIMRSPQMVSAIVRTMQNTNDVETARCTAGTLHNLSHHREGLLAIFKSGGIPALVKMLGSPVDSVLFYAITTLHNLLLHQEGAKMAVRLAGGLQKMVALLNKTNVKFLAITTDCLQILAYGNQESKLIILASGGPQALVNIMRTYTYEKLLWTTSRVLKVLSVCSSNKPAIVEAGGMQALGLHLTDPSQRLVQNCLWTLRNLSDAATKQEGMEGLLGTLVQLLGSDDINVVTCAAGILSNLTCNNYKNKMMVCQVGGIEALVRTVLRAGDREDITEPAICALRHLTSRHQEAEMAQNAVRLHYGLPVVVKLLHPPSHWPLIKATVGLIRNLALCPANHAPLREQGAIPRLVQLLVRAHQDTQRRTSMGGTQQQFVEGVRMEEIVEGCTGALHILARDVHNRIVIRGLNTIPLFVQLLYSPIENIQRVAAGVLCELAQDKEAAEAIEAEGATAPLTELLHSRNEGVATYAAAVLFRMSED

B1: SEQ ID NO: 191 (peptide)
peptide: MWFLICAWD
HELM: PEPTIDE1{[O=C(CCCN[*:1])[*:2]].M.W.F.L.I.C.A.W.D}$PEPTIDE1,PEPTIDE1,1:R1-10:R3$$$V2.0
SMILES: CC[C@H](C)[C@@H]1NC(=O)[C@H](CC(C)C)NC(=O)[C@H](Cc2ccccc2)NC(=O)[C@H](Cc2c[nH]c3ccccc23)NC(=O)[C@H](CCSC)NC(=O)CCCNC(=O)C[C@@H](C(=O)O)NC(=O)[C@H](Cc2c[nH]c3ccccc23)NC(=O)[C@H](C)NC(=O)[C@H](CS)NC1=O
B2: SEQ ID NO: 204 (peptide)
peptide: KWGLISAWD
HELM: PEPTIDE1{K.W.[O=C([C@@H](N[*:1])C1CCCCC1)[*:2]].L.I.S.A.W.D}$PEPTIDE1,PEPTIDE1,1:R3-9:R3$$$V2.0
SMILES: CC[C@H](C)[C@@H]1NC(=O)[C@H](CC(C)C)NC(=O)[C@H](C2CCCCC2)NC(=O)[C@H](Cc2c[nH]c3ccccc23)NC(=O)[C@@H](N)CCCCNC(=O)C[C@@H](C(=O)O)NC(=O)[C@H](Cc2c[nH]c3ccccc23)NC(=O)[C@H](C)NC(=O)[C@H](CO)NC1=O
B3: SEQ ID NO: 216 (peptide)
peptide: MWALISFWG
HELM: PEPTIDE1{[ac].M.W.[Cha].L.I.S.F.W.G}$$$$V2.0
SMILES: CC[C@H](C)[C@H](NC(=O)[C@H](CC(C)C)NC(=O)[C@H](CC1CCCCC1)NC(=O)[C@H](Cc1c[nH]c2ccccc12)NC(=O)[C@H](CCSC)NC(C)=O)C(=O)N[C@@H](CO)C(=O)N[C@@H](Cc1ccccc1)C(=O)N[C@@H](Cc1c[nH]c2ccccc12)C(=O)NCC(=O)O
B4: SEQ ID NO: 199 (peptide)
peptide: KWFLISFWE
HELM: PEPTIDE1{[ac].K.W.F.L.I.S.F.W.E}$PEPTIDE1,PEPTIDE1,2:R3-10:R3$$$V2.0
SMILES: CC[C@H](C)[C@@H]1NC(=O)[C@H](CC(C)C)NC(=O)[C@H](Cc2ccccc2)NC(=O)[C@H](Cc2c[nH]c3ccccc23)NC(=O)[C@@H](NC(C)=O)CCCCNC(=O)CC[C@@H](C(=O)O)NC(=O)[C@H](Cc2c[nH]c3ccccc23)NC(=O)[C@H](Cc2ccccc2)NC(=O)[C@H](CO)NC1=O
B5: SEQ ID NO: 217 (peptide)
peptide: MWGLISFWG
HELM: PEPTIDE1{[ac].M.W.[O=C([C@@H](N[*:1])C1CCCCC1)[*:2]].L.I.S.F.W.G}$$$$V2.0
SMILES: CC[C@H](C)[C@H](NC(=O)[C@H](CC(C)C)NC(=O)[C@@H](NC(=O)[C@H](Cc1c[nH]c2ccccc12)NC(=O)[C@H](CCSC)NC(C)=O)C1CCCCC1)C(=O)N[C@@H](CO)C(=O)N[C@@H](Cc1ccccc1)C(=O)N[C@@H](Cc1c[nH]c2ccccc12)C(=O)NCC(=O)O
notes: also called Hit 1

The binders below were run against T1, β-catenin (assay: competitive FP).
How it was run: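 Competitive fluorescence polarization with inhibitor peptide serially diluted from 10 nM to 30 uM; polarization read at 470 nm excitation, 520 nm emission. Experiments performed three times.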

Binder | Kd
B1 | > 400 nM and ≤ 1000 nM
Ac-MWFLICFWG-OH [SEQ ID NO: 198] | > 400 nM and ≤ 1000 nM
B2 | > 400 nM and ≤ 1000 nM
KWFLICAWD (cyclo-H2N-K(G*)WFLICAWD*-COOH) [SEQ ID NO: 207] | > 400 nM and ≤ 1000 nM
H-MWFLIAAWG-OH [SEQ ID NO: 212] | > 400 nM and ≤ 1000 nM
Ac-MWILISFW[Sar]-OH [SEQ ID NO: 221] | ≤ 400 nM
H-AWFLISFWG-OH [SEQ ID NO: 209] | > 400 nM and ≤ 1000 nM
B3 | > 400 nM and ≤ 1000 nM
H-MWFLI[Cys(Me)]FWG-OH [SEQ ID NO: 214] | > 400 nM and ≤ 1000 nM
B4 | > 400 nM and ≤ 1000 nM
Ac-MWLLISFWG-OH [SEQ ID NO: 218] | ≤ 400 nM
B5 | ≤ 400 nM

These binders were tested against T1, β-catenin (assay: cell-based or functional assay).

Binder | Wnt Reporter EC50
B1 | > 7500 nM and ≤ 15000 nM
Ac-MWFLICFWG-OH [SEQ ID NO: 198] | ≤ 7500 nM
B2 | ≤ 7500 nM
KWFLICAWD (cyclo-H2N-K(G*)WFLICAWD*-COOH) [SEQ ID NO: 207] | ≤ 7500 nM
H-MWFLIAAWG-OH [SEQ ID NO: 212] | ≤ 7500 nM
Ac-MWILISFW[Sar]-OH [SEQ ID NO: 221] | ≤ 7500 nM
H-AWFLISFWG-OH [SEQ ID NO: 209] | ≤ 7500 nM
B3 | ≤ 7500 nM
H-MWFLI[Cys(Me)]FWG-OH [SEQ ID NO: 214] | ≤ 7500 nM
B4 | ≤ 7500 nM
Ac-MWLLISFWG-OH [SEQ ID NO: 218] | ≤ 7500 nM
B5 | ≤ 7500 nM
